Measured values published in article PMC4855880 (Developmental cell, 2016).

Target: Rvs167 (1-265)/161 heterodimer (S. cerevisiae, UniProt P39743 1-265; P25343 1-265)
Assay: liposome flotation

stoichiometry N: ~0.25 calmodulin per heterodimer
B1: GST-Cmd1 (natural protein)
chain: not shown
